In patent US20130244232A1, “HIGH-EFFICIENCY CATALYSTS, PREPARATION AND USE THEREOF” (priority 2012, published 2013):
Like-named read-outs stand apart in the source and are kept apart here.

Assays:
[1] = ABTS oxidation with H2O2, pH 7.0; cited from earlier work
[2] = in the presence of lactoperoxidase; cited from earlier work
[3] = Peroxidase activity: guaiacol oxidation with H2O2 (tetraguaiacol formation at 470 nm); assay type: biochemical
Protocol: The peroxidase activity on the guaiacol substrate was evaluated by following the formation of guaiacol oxidation product, tetraguaiacol. Changes in the absorbance at 470 nm were measured, considering a ε470=2.66×10^4 M^−1cm^−1.
In details, in the experiments performed at various H2O2 concentrations (in the range 1÷ 40 mM), the guaiacol concentration was kept constant at 0.1 mM. In the experiments performed at various guaiacol concentrations, in the range 0.0025÷ 0.07 mM, the H2O2 concentration was 10 mM.

[4] = Peroxidase activity: ABTS oxidation with H2O2 (formation of ABTS+• radical cation at 660 nm); assay type: biochemical; conditions: for Specific activity: ABTS oxidation with H2O2, pH 6.5
Protocol: The peroxidase activity of the compound on the secondary substrate ABTS was evaluated by following the formation of the ABTS^+• radical cation, in the presence of H2O2.
The reaction was followed by using spectrophotometry, measuring the appearance of the products in the reaction medium. The formation of ABTS^+• cation radical was followed at 660 nm (λmax (ε)=660 nm (1.40×10^4 M^−1cm^−1)). The reaction was performed in 50% TFE (v/v) 100 mM phosphate buffer, pH 6.5, using a 2.0×10^−7 M catalyst concentration.
Kinetic parameters of the compound were determined by varying the H2O2 concentration using fixed concentrations of the reducing substrates, and vice versa.
In more details, in the experiments performed at various H2O2 concentrations (in the range 0.01÷ 200 mM) the ABTS concentration was kept constant at 0.1 mM. In the experiments performed at various ABTS concentrations (in the range 0.005÷ 0.1 mM) the H2O2 concentration was 50 mM.
The experiments were performed in 50% TFE (v/v) 100 mM phosphate buffer, pH 6.5. As described in the example 10, the catalytic process was evaluated by following the formation of the ABTS^+• radical cation at 660 nm (c=[…] cm^−1). Kinetic parameters of the compound were determined by varying the H2O2 concentration using fixed concentrations of the reducing substrates, and vice versa.
In more details, in the first experiment the ABTS and the conjugate concentrations were kept constant at 0.1 mM and 2 10^−7 M, respectively, and the H2O2 concentration was varied in the range 10-100 mM. In the second experiment, the H2O2 and the conjugate concentrations were fixed at 50 mM and 2 10^−7 M, respectively, and the ABTS concentration was varied in the range 0.005÷ 0.1 mM.

[5] = Phenol nitration (NaNO2/H2O2), HPLC analysis; assay type: biochemical; conditions: 40 min, room temperature, substrate and oxidant 1.0 mM, 40 mM NO2−, 0.2 μM catalyst, pH 6.5, 50% TFE
Protocol: For the compound Fe(III)-3,7,12,17-tetramethyl-porphyrin-2(18)-N9epsilon-(Ace-Asp1-Glu2-Gln3-Gln4-Leu5-His6-Ser7-Gln8-Lys9-Arg10-Lys11-Ile12-Thr13-Leu14-NH2)-18(2)-N9epsilon-(Ace-Asp1-Glu2-Gln3-Gln4-Leu5-Ser6-Ser7-Gln8-Lys9-Arg10-NH2)-di-propionammide, whose synthesis is described in example 1, the ability to catalyze phenol nitration was evaluated. […] The concentrations of the starting material and products were determined from calibration curves constructed using commercial samples and 4-cyanophenol as internal standard. Standard incubation for phenol nitration were performed at 1 mM phenol in the presence of 0.2 μM catalyst, 20 mM NaNO2 and 3 mM H2O2 in phosphate buffer, pH 6.5, 50% TFE (v/v).
The reactions were performed at room temperature with an incubation time of 40 min. […] The yield of 4- and 2-nitrophenol at 40 min reaction time increased by increasing H2O2 NO2″ and phenol concentrations. The maximum yield of nitrophenols (4- and 2-) was obtained at a substrate and oxidant concentrations of 1.0 mM, and at 40 mM NO2^− concentration, respectively.

[6] = ABTS oxidation with H2O2, pH 6.5, 50% TFE (v/v) 100 mM phosphate buffer
[7] = ABTS oxidation with H2O2, pH 6.5, 50% TFE (v/v) 100 mM phosphate buffer, read-out: Km^H2O2
[8] = AH2 = ABTS, pH 6.5, 50% TFE (v/v) 100 mM phosphate buffer, read-out: Km^AH2

| Substance | Specific activity [4] | kcat [4, 6] | Km [4, 7] | Km [4, 8] | further results |
| --- | --- | --- | --- | --- | --- |
| H-Cys-Ala-Gln-Cys-His-Thr-Val-Glu-OH (CAQCHTVE; heme covalently attached; printed: Cys-Ala-Gln-Cys-His-Thr-Val-Glu-) [MP8, microperoxidase, mono-adduct porphyrin obtained from proteolytic digestion of cytochromes c] |  |  |  |  | Specific activity [1]: 0.000104 mol/g/min; kcat [1]: 0.0026 s⁻¹ |
| lactoperoxidase |  |  |  |  | total yield of nitrophenols relative to the compound of example 1 [2]: fourfold higher |
| Fe(III)-3,7,12,17-tetramethyl-porphyrin-2(18)-N9epsilon-(Ace-Asp1-Glu2-Gln3-Gln4-Leu5-His6-Ser7-Gln8-Lys9-Arg10-Lys11-Ile12-Thr13-Leu14-NH2)-18(2)-N9epsilon-(Ace-Asp1-Glu2-Gln3-Gln4-Leu5-Ser6-Ser7-Gln8-Lys9-Arg10-NH2)-di-propionammide [Example 1] | 6.269 mol/g/min | 370.9 ± 14 s⁻¹ | 44000 µM | 84 µM | Km ([3]; AH2 = guaiacol): 9.2 ± 0.4 µM; kcat ([3]; guaiacol oxidation with H2O2): 8.0 ± 0.1 s⁻¹; specific activity for guaiacol oxidation relative to horseradish peroxidase ([3]; versus horseradish peroxidase): two times higher; kcat ([4]; ABTS oxidation with H2O2, pH 6.5, 50% TFE (v/v) 100 mM phosphate buffer, listed as Esempio 1): 371 s⁻¹; Km ([4]; AH2 = ABTS, pH 6.5, 50% TFE, 2.0×10^−7 M catalyst, read-out: Km^AH2): 84 ± 2 µM; specific activity for ABTS oxidation ([4]; pH=6.5): 104 mmol/g/s; total yield of nitrophenols (4- and 2-) [5]: about 14.8% |
| 3,7,12,17-tetramethyl-porphyrin-2 (18)-N9epsilon-(Ace-Asp1-Glu2-Gln3-Gln4-Leu5-His6-Ser7-Gln8-Lys9-Arg10-Lys11-Ile12-Thr13-Leu14-NH2)-18(2)-N9epsilon-(Ace-Asp1-Glu2-Gln3-Gln4-Leu5-Gly6-Ser7-Gln8-Lys9-Arg10-NH2)-di-propionamide [Example 7] | 7.976 mol/g/min | 468 s⁻¹ | 46000 µM | 125 µM |  |
| 3,7,12,17-tetramethyl-porphyrin-2(18)-N9epsilon-(Ace-Asp1-Glu2-Gln3-Gln4-Leu5-His6-Ser7-Gln8-Lys9-Arg10-Lys11-Ile12-Thr13-Leu14-NH2)-18(2)-N9epsilon-(Ace-Asp1-Glu2-Gln3-Gln4-Leu5-Ser6-Ser7-Gln8-Lys9-Leu10-NH2)-di-propionamide [Example 9] | 2.890 mol/g/min | 169 s⁻¹ | 20000 µM | 29 µM |  |
| 3,7,12,17-tetramethyl-porphyrin-2(18)-N9epsilon-(Ace-Asp1-Glu2-Gln3-Gln4-Leu5-His6-Ser7-Gln8-Lys9-Leu10-Lys11-Ile12-Thr13-Leu14-NH2)-18(2)-N9epsilon-(Ace-Asp1-Glu2-Gln3-Gln4-Leu5-Ser6-Ser7-Gln8-Lys9-Arg10-NH2)-di-propionamide [Example 5] | 11.72 mol/g/min | 685 s⁻¹ | 54000 µM | 38 µM | Specific activity ([4]; listed as Esempio 5): 11.716 mol/g/min |
| 3,7,12,17-tetramethylporphyrin-18(2)-propionicacid-2(18)-N9epsilon-(Ac-Asp1-Glu2-Gln3-Gln4-Leu5-His6-Ser7-Gln8-Lys9-Arg10-Lys11-Ile12-Thr13-Leu14-NH2)propionamide [Example 4] | 17.86 mol/g/min | 688 s⁻¹ | 80000 µM | 130 µM | Specific activity ([4]; listed as Esempio 4): 17.860 mol/g/min |
| 3,7,12,17-tetramethyl-porphyrin-2(18)-N9epsilon-(Ace-Asp1-Glu2-Gln3-Gln4-Leu5-His6-Ser7-Gln8-Lys9-Arg10-Lys11-Ile12-Thr13-Leu14-NH2)-18(2)-N9epsilon-(Ace-Asp1-Leu2-Gln3-Gln4-Leu5-Ser6-Ser7-Gln8-Lys9-Arg10-NH2)-di-propionamide [Example 8] | 6.463 mol/g/min | 381 s⁻¹ | 96000 µM | 115 µM |  |
| H-VQKCAQCHTVE-OH (cysteine pairing not given here) [MP11] |  |  |  |  | Specific activity [1]: 0.000419 mol/g/min; kcat [1]: 0.013 s⁻¹ |
